Experimental data from patent US20230287108A1 (published 2023).

Target: T1, recombinant cynomolgus monkey (Macaca fascicularis) transferrin receptor 1 (cTfR1) (cynomolgus monkey (Macaca fascicularis), UniProt Q5RDH6 87-760 (Pongo abelii entry), limits assumed)
T1 construct: Recombinant protein; also called cyTfR1; cyno TfR1
T1 chain: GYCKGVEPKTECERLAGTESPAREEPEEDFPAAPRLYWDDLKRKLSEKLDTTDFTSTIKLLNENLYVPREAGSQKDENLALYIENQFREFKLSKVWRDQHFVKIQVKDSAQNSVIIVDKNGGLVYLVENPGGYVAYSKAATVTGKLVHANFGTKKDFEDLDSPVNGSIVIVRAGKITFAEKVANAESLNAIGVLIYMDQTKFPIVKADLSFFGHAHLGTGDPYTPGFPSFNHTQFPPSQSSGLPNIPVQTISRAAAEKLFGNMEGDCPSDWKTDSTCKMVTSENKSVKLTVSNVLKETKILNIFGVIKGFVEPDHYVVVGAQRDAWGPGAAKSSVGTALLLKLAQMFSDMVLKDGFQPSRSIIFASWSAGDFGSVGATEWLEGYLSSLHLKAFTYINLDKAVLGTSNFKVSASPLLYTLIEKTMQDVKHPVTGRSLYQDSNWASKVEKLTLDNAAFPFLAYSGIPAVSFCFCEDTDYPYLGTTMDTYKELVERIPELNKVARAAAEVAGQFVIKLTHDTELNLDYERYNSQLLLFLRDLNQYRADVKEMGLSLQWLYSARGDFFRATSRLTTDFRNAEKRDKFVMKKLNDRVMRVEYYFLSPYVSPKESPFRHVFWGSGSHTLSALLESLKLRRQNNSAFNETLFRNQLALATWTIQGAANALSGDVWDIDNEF
Assay: Avg KD, antibody alone; table gives no method

B1: 15G11 (control anti-TfR1 antibody) (antibody, V domains shown)
VH: QVQLQQPGAELVKPGASVKLSCKASGYTFTSYWMHWVKQRPGQGLEWIGEINPTNGRTNYIEKFKSKATLTVDKSSSTAYMQLSSLTSEDSAVYYCARGTRAYHYWGQGTSVTVSS
VL: DIQMTQSPASLSVSVGETVTITCRASDNLYSNLAWYQQKQGKSPQLLVYDATNLADGVPSRFSGSGSGTQYSLKINSLQSEDFGTYYCQHFWGTPLTFGAGTKLELK
  Kd: 1 nM
